Measured values as given in patent publication US20100203559A1 (published 2010).
Positions count from the first letter of the chain named.

B1: α-SNAP-25 monoclonal antibody 1D3B8 (antibody, V domains shown)
VH: QVKLQESGAELVKPGASVKISCKASGYIFTDHALHWVRQKPEQGLEWIGYIFPGNGNIEYNEKFKGKATLTADKSSSTAYMQLNSLTSGDSAMYFCKKMDYWGQGTTVTVSS
VL: DVLMTQTPLSLPVSLGDQASISCRSSQSIVHSNGNTYLEWYLQKPGQSPKLLIYKVSNRFSGVPDRFSGSGSGTDFTLKISRVEAEDLGVYYCFQGSHVPPTFGAGTKLELKR
B2: α-SNAP-25 monoclonal antibody 2E2A6 (antibody, V domains shown)
VH: QVQLQQSDAELVKPGASVKISCRASGYTFTDHSIHWVKQQPGQGLEWIGYIFPGNGNIEYNDKFKGKATLTADKSSGTAYMQLNSLTSEDSAVYFCKRMGYWGQGTSVTVSS
VL: DVLMTQTPLTLSVTIGQPASISCKSSQSLLYTNGKTYLTWLFQRPGQSPKRLIYLVSELDSGVPDRFSGSGSGTDFTLEITRVEAEDLGVYYCLQSAHFPFTFGSGTKLEIKR
B3: α-SNAP-25 monoclonal antibody 3C1A5 (antibody, V domains shown)
VH: QVKLQESGAELVKPGASVKISCKASGYTFTDHSIHWVKQKPGQGLEWIGYLFPGNGNFEYNEKFKGKATLTADKSSSTVYMYLNSLTSEDSAVYFCKRMGYWGQGTTVTVSS
VL: B2 VL with L3V, Y31N, F42I, K50Q, E58K, E79K, T81S, A97S

target: T1, SNAP-25206 uncleaved substrate (PC12 cells) (rat (PC12 cells), UniProt P60881 1-206); assay: cell-based activity assay (Western blot, PC12 cells), ascites 1:100
T1 construct: also called uncleaved SNAP-25206 substrate; uncleaved SNAP-25
T1 sequence (P60881 whole entry): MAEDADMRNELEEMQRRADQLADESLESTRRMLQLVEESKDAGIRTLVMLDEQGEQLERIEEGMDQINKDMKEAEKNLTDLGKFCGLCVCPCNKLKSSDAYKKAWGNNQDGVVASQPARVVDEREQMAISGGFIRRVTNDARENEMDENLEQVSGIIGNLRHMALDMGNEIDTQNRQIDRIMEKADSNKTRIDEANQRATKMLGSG

Binder	binding result
B1	no binding
B2	no binding
B3	no binding
